Data on seven molecules can be found in patent US7101969 (TARGANTA THERAPEUTICS, dated 2006).

The chains are these.
B1: Gal4 activation domain (GAD) fused to full-length S. aureus DnaI (pGAD dnaI) (other)
chain: MGGGQSIMKQFKSIINTSQDFEKRIEKIKKEVINDPDVKQFLEAHRAELTNAMIDEDLNVLQEYKDQQKHYDGHKFADCPNFVKGHVPELYVDNNRIKIRYLQCPCKIKYDEERFEAELITSHHMQRDTLNAKLKDIYMNHRDRLDVAMAADDICTAITNGEQVKGLYLYGPFGTGKSFILGAIANQLKSKKVRSTIIYLPEFIRTLKGGFKDGSFEKKLHRVREANILMLDDIGAEEVTPWVRDEVIGPLLHYRMVHELPTFFSSNFDYSELEHHLAMTRDGEEKTKAARIIERVKSLSTPYFLSGENFRNN
B2: S. aureus DnaI (native protein from S. aureus cell extract) (other)
chain: B1 chain
notes: also called DnaI homolog; DnaI related protein
B3: GST/ORF104 fusion protein (other)
chain: MVTKEFLKTKLECSDMYAQKLIDEAQGDENRLYDLFIQKLAERHTRPAIVEY
notes: also called GST-fusion of ORF 104; not shown: GST moiety encoded by expression vector pGEX 4T-1 (Pharmacia)
B4: bacteriophage 77 ORF 104 protein (GST removed) (other)
chain: B3 chain
notes: also called phage 77 ORF 104 gene product
B5: Gal4 activation domain fused to phage 77 ORF104 (pGAD77ORF104) (other)
chain: B3 chain
B6: Gal4 activation domain fused to S. aureus DnaI amino acids 150 to 313 (other)
chain: AADDICTAITNGEQVKGLYLYGPFGTGKSFILGAIANQLKSKKVRSTIIYLPEFIRTLKGGFKDGSFEKKLHRVREANILMLDDIGAEEVTPWVRDEVIGPLLHYRMVHELPTFFSSNFDYSELEHHLAMTRDGEEKTKAARIIERVKSLSTPYFLSGENFRNN
B7: Gal4 activation domain fused to S. aureus DnaI amino acids 64 to 313 (other)
chain: YKDQQKHYDGHKFADCPNFVKGHVPELYVDNNRIKIRYLQCPCKIKYDEERFEAELITSHHMQRDTLNAKLKDIYMNHRDRLDVAMAADDICTAITNGEQVKGLYLYGPFGTGKSFILGAIANQLKSKKVRSTIIYLPEFIRTLKGGFKDGSFEKKLHRVREANILMLDDIGAEEVTPWVRDEVIGPLLHYRMVHELPTFFSSNFDYSELEHHLAMTRDGEEKTKAARIIERVKSLSTPYFLSGENFRNN

Assay [1] deals with Gal4 DNA binding domain fused to phage 77 ORF104 (pGBK77ORF104) (yeast; Staphylococcus aureus …, UniProt P04386 1-147). As to the kind of experiment: yeast two-hybrid: growth of co-transformants on THAL minus SD medium; all six sectors show growth on TL minus SD medium.
For another assay, the target named is T1, GST (UniProt P08515 1-218 = GST).
T1 construct: also called GST ligand (control)
T1 sequence (P08515 whole entry): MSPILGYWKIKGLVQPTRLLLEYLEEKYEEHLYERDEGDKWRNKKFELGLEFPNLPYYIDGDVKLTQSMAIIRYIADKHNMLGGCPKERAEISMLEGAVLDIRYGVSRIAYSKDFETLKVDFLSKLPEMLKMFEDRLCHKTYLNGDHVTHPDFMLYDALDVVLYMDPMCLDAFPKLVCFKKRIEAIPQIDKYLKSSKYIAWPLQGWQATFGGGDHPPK
As to the kind of experiment: affinity chromatography: S. aureus extract (French pressure cell and sonication) on micro-columns with GST cross-linked at 0 to 2.0 mg/ml resin; eluate with 1% SDS; 12.5% SDS-PAGE, silver stain.

Assay [2] has as its target B2. Kind of assay: affinity chromatography: S. aureus extract (French pressure cell and sonication) on micro-columns with ligand cross-linked at 0, 0.1, 0.5, 1.0 and 2.0 mg/ml resin; eluate with 1% Triton X-100; 12.5% SDS-PAGE, silver stain.
For assay [3], the target named is B2. As to the kind of experiment: affinity chromatography of S. aureus extract, elution with 1% Triton X-100 and 1% SDS, silver stain, MALDI-ToF identification.
Assay [4] deals with Gal4 DNA binding domain fused to full-length S. aureus DnaI (pGBK dnaI) (yeast; Staphylococcus aureus, UniProt P04386 1-147). As to the kind of experiment: yeast two-hybrid: growth of co-transformants on SD plate without Trp, Leu, His and Ade (HIS3 and ADE2 reporters); all six sectors grow on the SD plate without Trp and Leu.

Turning to B1, the binding result in assay [1] is “binds”.
On to B2, for which the binding result with GST is on record as “no binding (tested: 2.0 mg/ml resin)”.
For the molecule B3, in assay [2], the binding result was “binds”.
B4: the binding result in assay [3] is “binds”.
Consider B5, for which, in assay [4], the binding result was “binds”.
Turning to B6, the binding result in assay [1] is “binds”.
Same read-out and setting: the result for B7 reads “binds”.
